According to US20240190986A1 (ZHEJIANG NANOMAB TECHNOLOGY CENTER, published 2024):

Key:
[1] = molecular target: T1, MSLN on SKOV3 and Aspc-1 tumor cells (UniProt Q13421 296-598); experiment: flow cytometry on Aspc-1 tumor cells, anti-human IgG PE secondary, fitted curve
T1 construct: whole, on cells; Endogenous mesothelin of tumor cell lines; also called SKOV3 tumor cell line; AsPC-1 tumor cell line

[2] = molecular target: T2, segment III of MSLN expressed on HEK293T cells (UniProt Q13421 487-598, limits assumed); experiment: flow cytometry on HEK293T cells expressing MSLN segment III, anti-human IgG PE secondary, fitted curve
T2 construct: domain: segment III of MSLN; also called HEK293T MSLN-III cells; MSLN segment III protein overexpressing cell line

[3] = molecular target: T1, MSLN on SKOV3 and Aspc-1 tumor cells; experiment: flow cytometry on SKOV3 tumor cells, anti-human IgG PE secondary, fitted curve
MSLN·His protein = molecular target: T3, MSLN·His protein (human, UniProt Q13421 296-580, limits assumed); experiment: SPR (Biacore), antibody captured on protein A, MSLN·His as analyte
T3 construct: Bought protein; also called human MSLN·His antigen; not shown: His tag
Procedure: (1) Detection of affinity at protein level: the binding kinetics and affinity of heavy chain antibody to human MSLN·His antigen were determined using surface plasmon resonance (SPR). The purified antibody was flowed through the sensor chips pre-immobilized with protein A, and the antibody was captured by protein A. Then five different concentrations of MSLN·His protein were used as the mobile phase, and the binding time and dissociation time were 30 min and 60 min, respectively. Biacore Evaluation Software 2.0 (GE) was used to analyze the binding rate (kon, or ka), dissociation rate (koff, or kd) and equilibrium constant (KD). The rabbit antibody YP218, which binds to segment III of mesothelin, was selected as a positive control (Zhang et al., Sci Rep 2015, 21; 5:9928).

MSLN.Fc protein = molecular target: T4, MSLN.Fc protein (human, UniProt Q13421 296-598, limits assumed); experiment: ELISA, antigen coated, TG1 supernatant
T4 construct: also called MSLN·hFc; MSLN protein; not shown: human IgG Fc fragment

MD50 protein = molecular target: T5, MD50 protein; experiment: ELISA, antigen coated, TG1 supernatant
T5 construct: range 487-580; also called proximal membrane fragment of mesothelin
T5 sequence (Q13421 495-588): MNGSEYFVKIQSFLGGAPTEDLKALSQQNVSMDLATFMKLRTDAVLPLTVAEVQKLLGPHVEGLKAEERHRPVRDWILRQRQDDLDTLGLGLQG

T4 sequence (Q13421 other isoform, or with tags, fused parts or gaps limits assumed): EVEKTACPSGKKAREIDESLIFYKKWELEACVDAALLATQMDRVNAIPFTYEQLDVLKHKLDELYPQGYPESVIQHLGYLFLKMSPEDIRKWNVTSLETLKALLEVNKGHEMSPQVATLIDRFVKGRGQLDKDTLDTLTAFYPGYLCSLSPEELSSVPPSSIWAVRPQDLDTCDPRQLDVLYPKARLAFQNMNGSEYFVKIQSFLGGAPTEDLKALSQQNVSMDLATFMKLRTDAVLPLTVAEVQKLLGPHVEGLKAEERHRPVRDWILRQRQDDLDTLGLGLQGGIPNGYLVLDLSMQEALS
T2 sequence (Q13421 495-606 limits assumed): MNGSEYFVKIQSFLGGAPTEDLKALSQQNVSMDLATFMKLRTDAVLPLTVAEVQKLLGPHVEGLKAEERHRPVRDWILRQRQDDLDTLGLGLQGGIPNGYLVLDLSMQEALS
T3 sequence (Q13421 other isoform, or with tags, fused parts or gaps limits assumed): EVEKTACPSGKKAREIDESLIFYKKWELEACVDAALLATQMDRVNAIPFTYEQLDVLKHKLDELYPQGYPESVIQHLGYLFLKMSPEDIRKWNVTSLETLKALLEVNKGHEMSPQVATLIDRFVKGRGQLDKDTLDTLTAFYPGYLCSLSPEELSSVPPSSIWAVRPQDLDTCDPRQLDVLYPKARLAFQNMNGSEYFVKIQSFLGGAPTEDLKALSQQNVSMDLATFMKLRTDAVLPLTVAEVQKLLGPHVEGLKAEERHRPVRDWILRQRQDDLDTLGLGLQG

Row | Binder | EC50 [1] | EC50 [2] | EC50 [3] | Kd (MSLN·His protein) | koff (MSLN·His protein) | kon (MSLN·His protein) | ELISA (OD450) (MSLN.Fc protein) | ELISA (OD450) (MD50 protein)
1 | M003-IgG4 (antibody, V domains shown, also called M003 heavy chain antibody) VH: QVQLVESGGGLVQAGGSLRLSCTASGNIFSINAMGWYRQPPGKEWERELVATISSTNSDNTYYKESVKGRFTISTNTAKNTWYLQMNSLKPEDTAMYYCAAENFDRKDRYWAQGTQVTVSS | 5.31 nM | 4.95 nM | 1.62 nM | 0.49 nM | 0.000429 s⁻¹ | 882000 M⁻¹ s⁻¹ |  | 
2 | M119-IgG4 (antibody, V domains shown, also called M119 heavy chain antibody) VH: EVQLVESGGGLVQPGGSLRLSCVASGSDLSFDAMGWYRQFSATVRERQLVVATSRDGRIYYGDSVKGRFTASRDNLKNSVDLEMNNLKPEDTAIYYCAAGDDPKNYDWGPGTQVTVSS | 4.25 nM | 3.91 nM | 1.63 nM | 0.12 nM | 9.58e-05 s⁻¹ | 826000 M⁻¹ s⁻¹ |  | 
3 | M129-IgG4 (antibody, V domains shown, also called M129 heavy chain antibody) VH: QVQLVESGGGSAQAGGSLILSCVASANLFTIDALGWYRQAPGPKRELVAAISSGGNKYYADAVKGRFTISRDTLTKTMWLQMNNLKPEDTAMYYCAAEDYGLGQRSWGMGTQVTVSS | 2.79 nM | 6.24 nM | 1.85 nM | 0.04 nM | 5.37e-05 s⁻¹ | 1.4e+06 M⁻¹ s⁻¹ |  | 
4 | M156-IgG4 (antibody, V domains shown, also called M156 heavy chain antibody) VH: QVQLVESGGGLVQAGGSLRLSCAVSGISFEYYAIGWFRQAPGKEREAVSCTTSGTTSGGGVTDYADSLKGRFTISRDVAKNTVYLQMNNLTPEDTAVYYCAADIHCRGYVLFVPSDFGNWGQGTQVTVSS | 5.37 nM | 4.15 nM | 1.05 nM | 0.09 nM | 5.4e-05 s⁻¹ | 592000 M⁻¹ s⁻¹ |  | 
5 | M344-IgG4 (antibody, V domains shown, also called M344 heavy chain antibody) VH: QVQLVESGGGLVQSGGSLRLSCVASGSAFSFDAMGWYRQFSATRRERQLVVATSRDGRTYYADSVKGRFTATRDNSKNSLYLEMNSLKPEDTAIYYCAAGDDPKNYSWGQGTQVTVSS | 3.59 nM | 3.39 nM | 1.36 nM | 0.07 nM | 2.35e-05 s⁻¹ | 359000 M⁻¹ s⁻¹ |  | 
6 | M044-IgG4 (antibody, V domains shown, also called M044 heavy chain antibody) VH: QVQVVESGGGFVQAGGSLRLSCAASTPIISIAYMGWYRQISEKERQLVATINSGGKTYYADSVKGRFTISRDNAKNTLYLQMNMLKPEDTGMYYCAASNKDYNDYDPDWGQGTQVTVSS | 17.4 nM | 10.6 nM | 0.512 nM | 2.1 nM | 7.5e-05 s⁻¹ | 53700 M⁻¹ s⁻¹ |  | 
7 | M2339-IgG4 (antibody, V domains shown, also called M2339 heavy chain antibody) VH: QLQLGASGGGLVQPGGSLRLSCALSGFTLRELDEFAIGWFRQAPGKEREGVSCISGTGGITHYADSVKGRFTISRDIAKTTVYLQMNSLNSEDTAVYYCAADERCTDRLIRPPTYWGQGTQVTVSS |  |  |  | 0.264 nM | 1.82e-05 s⁻¹ | 69000 M⁻¹ s⁻¹ |  | 
8 | M119 (VHH, Nanoantibody in TG1 supernatant in the screening ELISA; also called clone M119) VHH: EVQLVESGGGLVQPGGSLRLSCVASGSDLSFDAMGWYRQFSATVRERQLVVATSRDGRIYYGDSVKGRFTASRDNLKNSVDLEMNNLKPEDTAIYYCAAGDDPKNYDWGPGTQVTVSS |  |  |  |  |  |  | 2.49 OD450 | 1.46 OD450
9 | M129 (VHH, Nanoantibody in TG1 supernatant in the screening ELISA; also called clone M129) VHH: QVQLVESGGGSAQAGGSLILSCVASANLFTIDALGWYRQAPGPKRELVAAISSGGNKYYADAVKGRFTISRDTLTKTMWLQMNNLKPEDTAMYYCAAEDYGLGQRSWGMGTQVTVSS |  |  |  |  |  |  | 2.4 OD450 | 1.66 OD450
10 | M132 (VHH, Nanoantibody in TG1 supernatant in the screening ELISA; also called clone M132) VHH: QVQLVESGGGLVQAGGSLSLSCVASGDAFSFDAMGWYRQFSGKVNERQLVVATSRDGRTAYGERVKGRFTASRDNSKNTLSLVMNNLQVEDTAIYYCAAGDDPKDYYWGQGTQVTVSS |  |  |  |  |  |  | 1.34 OD450 | 1.17 OD450
11 | M137 (VHH, Nanoantibody in TG1 supernatant in the screening ELISA; also called clone M137) VHH: QVQLVESGGGLVQAGGSLSLSCAASGSLSSINAMGWYRQLPEMRQLVATMGSDGKTYYADSVKGRFTISRDYAKYTVSLQMNNLRPEDTAIYYCAADRFGAPIHDVDYWGKGTLVTVSV |  |  |  |  |  |  | 1.27 OD450 | 2.09 OD450
12 | M143 (VHH, Nanoantibody in TG1 supernatant in the screening ELISA; also called clone M143) VHH: EVQLVESGGGLVQAGGSLRLSCSASEKTFSIKYMGYYRQGPGIERKLVATIDTDGKTWYADSVKGRFTISRENGENEIGLEMNRLKPEDTAMYYCAGETGTYPKPEYWGQGTQVTVSS |  |  |  |  |  |  | 1.62 OD450 | 1.3 OD450
13 | M156 (VHH, Nanoantibody in TG1 supernatant in the screening ELISA; also called clone M156) VHH: QVQLVESGGGLVQAGGSLRLSCAVSGISFEYYAIGWFRQAPGKEREAVSCTTSGTTSGGGVTDYADSLKGRFTISRDVAKNTVYLQMNNLTPEDTAVYYCAADIHCRGYVLFVPSDFGNWGQGTQVTVSS |  |  |  |  |  |  | 1.67 OD450 | 1.53 OD450
14 | M169 (VHH, Nanoantibody in TG1 supernatant in the screening ELISA; also called clone M169) VHH: EVQLVESGGGTVQPGESLRLSCEASGAVSTINAMGWYRQTPEMRKLVATMGSGGNTYYADSVKGRFTISRDFAGNTVDLQMNDLKPEDTGVYFCAADKFGADIKEVAYWGKGTLVTVSS |  |  |  |  |  |  | 1.36 OD450 | 1.19 OD450
15 | M191 (VHH, Nanoantibody in TG1 supernatant in the screening ELISA; also called clone M191) VHH: QVQLVESGGGLVQAGGSLRLSCAASASMGSISNMGWYRQAPGKERGNERNLVATIGSDGRTYYADSVKGRFTISRDNVKNTMILQMNFLKPEDTAMYYCAVEDRQRPGTENYYWGQGTQVTVSS |  |  |  |  |  |  | 1.69 OD450 | 1.71 OD450
16 | M197 (VHH, Nanoantibody in TG1 supernatant in the screening ELISA; also called clone M197) VHH: EVQLVESGGGLVQAGGSLRLSCAASGSHFGLNVVGWYRQAPGKQRELVASIGNSGRTTDYADSVKGRFTISKDNAQNTIYLQMNNLKPEDTAMYRCHLRVSVERGYWGQGTQVTVSS |  |  |  |  |  |  | 1.21 OD450 | 1.69 OD450
17 | M210 (VHH, Nanoantibody in TG1 supernatant in the screening ELISA; also called clone M210) VHH: QVQLVESGGGLVQPGGSLRLSCAASGITLDNYAIAWFRQAPGKKREGVSCISSNGNTYYQPSVKGRFTIARDNAKNTVYLHMNNLNPEDTAVYYCQVGQFSSSTTPVQAMSVMSLYADWGQGTQVTVSS |  |  |  |  |  |  | 1.95 OD450 | 0.823 OD450
18 | M004 (VHH, Nanoantibody in TG1 supernatant in the screening ELISA; also called clone M004) VHH: EVQLVESGGGLVQAGGSLRLSCAASESISSIAYMGWYRRISEKERNLVATISSTGSTYYADSVKGRFTISRDNAKNTMYLQMNRLKPEDTAIYYCAASNKAYNDYDPDWGQGTQVTVSS |  |  |  |  |  |  | 1.1 OD450 | 1.81 OD450
19 | M224 (VHH, Nanoantibody in TG1 supernatant in the screening ELISA; also called clone M224) VHH: QVQLVESGGGLVQPGGSLRLSCAASGFTFHYYAIGWFRQAPGKEREGVSCISSSGDSTWFSDSVKGRFTVSRDNAKNIVHLQMNNLKPEDTAVYYCAGTTRSGYVCYDAEPYDSWGQGTQVTVSS |  |  |  |  |  |  | 1.45 OD450 | 1.78 OD450
20 | M344 (VHH, Nanoantibody in TG1 supernatant in the screening ELISA; also called clone M344) VHH: QVQLVESGGGLVQSGGSLRLSCVASGSAFSFDAMGWYRQFSATRRERQLVVATSRDGRTYYADSVKGRFTATRDNSKNSLYLEMNSLKPEDTAIYYCAAGDDPKNYSWGQGTQVTVSS |  |  |  |  |  |  | 2.22 OD450 | 2.08 OD450
